In experiment [1] the target is HIV-1 reverse transcriptase p66 subunit (immature RT precursor) (human immunodeficiency virus type 1 (HIV-1)). Description: SEC-MALS. Background: SEC sorts molecules by how far they enter the pores of the column.
Experiment [2] deals with HIV-1 reverse transcriptase p51 subunit (residues 1-440) (human immunodeficiency virus type 1 (HIV-1)). Kind of experiment: SEC-MALS.

Consider two substances from publication PMC4441793.

A word on the stoichiometry N: it is a count of units in the complex or per binding partner. In experiment [1], “HIV-1 reverse transcriptase p66 subunit (immature RT precursor) (enzyme)” registered a stoichiometry N of 2.
In experiment [2], “HIV-1 reverse transcriptase p51 subunit (residues 1-440) (domain or fragment)” came in with a percent dimer in the NMR sample of less than 60% and a stoichiometry N of 2.
